# Laboratory results taken from patent US20100311648A1.
# pKi: −log10 of the molar value.
# What was measured:
# [1] = molecular target: human melanocortin-4 receptor (human) (UniProt P32245); experiment: cell-based or functional assay
# [2] = molecular target: melanocortin-1 receptor (mouse (B-16 melanoma cells); in some instances human (hMC1-R)) (UniProt Q01727); experiment: [I125]-NDP-α-MSH competition, MC1-R membranes
# [3] = molecular target: human melanocortin-4 receptor (human) (UniProt P32245); experiment: [I125]-NDP-α-MSH competition, hMC4-R HEK-293 membranes
# Sequence of melanocortin-1 receptor (mouse (B-16 melanoma cells); in some instances human (hMC1-R)) (Q01727 whole entry): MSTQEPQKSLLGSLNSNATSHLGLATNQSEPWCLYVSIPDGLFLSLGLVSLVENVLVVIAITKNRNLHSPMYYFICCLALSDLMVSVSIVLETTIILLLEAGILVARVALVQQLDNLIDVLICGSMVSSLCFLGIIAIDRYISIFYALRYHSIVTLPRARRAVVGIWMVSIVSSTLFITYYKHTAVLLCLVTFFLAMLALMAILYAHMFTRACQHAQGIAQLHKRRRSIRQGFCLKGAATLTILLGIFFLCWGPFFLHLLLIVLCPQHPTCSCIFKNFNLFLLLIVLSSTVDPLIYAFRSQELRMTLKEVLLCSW
# Sequence of human melanocortin-4 receptor (human) (P32245 whole entry): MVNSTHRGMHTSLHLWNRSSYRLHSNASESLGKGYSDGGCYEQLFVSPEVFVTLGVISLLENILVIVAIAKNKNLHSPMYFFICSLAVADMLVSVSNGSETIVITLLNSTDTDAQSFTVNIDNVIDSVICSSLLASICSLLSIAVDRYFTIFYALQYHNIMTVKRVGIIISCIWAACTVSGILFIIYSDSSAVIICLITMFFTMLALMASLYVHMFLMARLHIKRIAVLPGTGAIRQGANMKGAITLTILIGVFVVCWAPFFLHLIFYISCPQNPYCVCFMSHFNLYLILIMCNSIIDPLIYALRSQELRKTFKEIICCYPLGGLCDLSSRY
Substance,"EC50, cAMP, 0.1 ng/mL Doxycycline [1] [nM]","EC50, cAMP, 10 ng/mL Doxycycline [1] [nM]","Intrinsic Activity, cAMP, 0.1 ng/mL Doxycycline [1] [%]","Intrinsic Activity, cAMP, 10 ng/mL Doxycycline [1] [%]",pKi [2],pKi [3]
Ac-Arg-cyclo(Glu-Dab(Acetyl)-D-Phe(2-Cl)-Arg-Trp-Orn)-NH2 (peptide),5,0.3,41,98,7.52,7.96
Ac-Arg-cyclo(Glu-Dab-D-Phe(2-CF3)-Arg-Trp-Orn)-NH2 (peptide),0.125,0.06,85,96,–,9.22
Ac-Arg-cyclo(Glu-Dab-D-Phe(2-CN)-Arg-Trp-Orn)-NH2 (peptide),34,0.5,64,97,–,7.35
Ac-Arg-cyclo(Glu-Dab-D-Phe(2-Cl)-Arg-Trp-Orn)-NH2 (peptide),0.34,0.045,91,96,9.00,–
Ac-Arg-cyclo(Glu-Dab-D-Phe(2-F)-Arg-Trp-Orn)-NH2 (peptide),0.09,0.035,91,89,9.10,9.15
Ac-Arg-cyclo(Glu-Dab-D-Phe(2-NO2)-Arg-Trp-Orn)-NH2 (peptide),–,0.2,78,93,–,7.96
"Ac-Arg-cyclo(Glu-Dab-D-Phe(3,4,5-triF)-Arg-Trp-Orn)-NH2 (peptide)",0.7,0.33,37,97,–,9.18
"Ac-Arg-cyclo(Glu-Dab-D-Phe(3,4-diOMe)-Arg-Trp-Orn)-NH2 (peptide)",75,2,23,94,–,–
"Ac-Arg-cyclo(Glu-Dab-D-Phe(3,5-diF)-Arg-Trp-Orn)-NH2 (peptide)",0.95,0.12,64,95,–,8.70
Ac-Arg-cyclo(Glu-Dab-D-Phe(3-Cl)-Arg-Trp-Orn)-NH2 (peptide),0.56,0.095,36,99,9.00,–
Ac-Arg-cyclo(Glu-Dab-D-Phe(3-NO2)-Arg-Trp-Orn)-NH2 (peptide),2,0.55,17,95,–,9.15
Ac-Arg-cyclo(Glu-Dab-D-Phe(3-OMe)-Arg-Trp-Orn)-NH2 (peptide),1,0.065,64,100,–,–
Ac-Arg-cyclo(Glu-Dab-D-Phe(4-NH2)-Arg-Trp-Orn)-NH2 (peptide),29,0.6,35,94,–,7.32
Ac-Arg-cyclo(Glu-Dab-D-Phe(4-tBu)-Arg-Trp-Orn)-NH2 (peptide),–,–,2,9,–,8.40
Ac-Arg-cyclo(Glu-Dab-D-Tyr-Arg-Trp-Orn)-NH2 (peptide),48,0.55,71,87,–,7.12
Ac-Arg-cyclo(Glu-Dap-D-Phe(2-Cl)-Arg-Trp-Orn)-NH2 (peptide),16,0.47,23,84,–,8.05
Ac-Arg-cyclo(Glu-Dap-D-Phe(3-Cl)-Arg-Trp-Orn)-NH2 (peptide),–,0.95,6,89,–,8.40
Ac-Arg-cyclo(Glu-Hyp-D-Phe(2-F)-Arg-Trp-Orn)-NH2 (peptide),1,0.08,57,90,7.28,–
Ac-Arg-cyclo(Glu-Orn-D-Phe(3-Cl)-Arg-Trp-Orn)-NH2 (peptide),0.95,0.14,36,93,–,9.00
Ac-Arg-cyclo(Glu-Phe(3-C(═O)-NH2)-D-Phe(2-Cl)-D-Phe-Arg-Trp-Orn)-NH2 (peptide),–,4,6,93,6.26,–
Ac-D-Arg-cyclo(Orn-His-D-Phe(2-F)-Arg-Trp-Glu)-NH2 (peptide),0.13,0.13,86,90,–,9.02

# More lines, in order of rising pKi [3], values ahead:
"EC50, cAMP, 0.1 ng/mL Doxycycline [1] [nM]","EC50, cAMP, 10 ng/mL Doxycycline [1] [nM]","Intrinsic Activity, cAMP, 0.1 ng/mL Doxycycline [1] [%]","Intrinsic Activity, cAMP, 10 ng/mL Doxycycline [1] [%]",pKi [2],pKi [3],Substance
0.14,0.085,83,97,–,9.30,Ac-Arg-cyclo(Glu-Dab-D-Phe(2-Me)-Arg-Trp-Orn)-NH2 (peptide)
–,0.8,14,100,–,9.30,Ac-Arg-cyclo(Glu-Dab-D-Phe(4-Ph)-Arg-Trp-Orn)-NH2 (peptide)
0.7,0.45,15,99,–,9.35,Ac-Arg-cyclo(Glu-Dab-D-Phe(4-NO2)-Arg-Trp-Orn)-NH2 (peptide)
0.42,0.22,35,97,–,9.40,Ac-Arg-cyclo(Glu-Dab-D-Phe(3-Me)-Arg-Trp-Orn)-NH2 (peptide)
0.125,0.12,74,90,–,9.52,"Ac-Arg-cyclo(Glu-Dab-D-Phe(3,4-diF)-Arg-Trp-Orn)-NH2 (peptide)"
0.31,0.373,36,100,–,9.52,Ac-Arg-cyclo(Glu-Ser(Bzl)-D-Phe(2-Cl)-Arg-Trp-Orn)-NH2 (peptide)
0.165,0.2,16,90,–,9.84,Ac-Arg-cyclo(Glu-Dab-D-Phe(4-Me)-Arg-Trp-Orn)-NH2 (peptide)
–,0.5,8,97,–,10.07,"Ac-Arg-cyclo(Glu-Dab-D-Phe(2,4-diMe)-Arg-Trp-Orn)-NH2 (peptide)"
–,–,0.5,53,–,10.22,Ac-Arg-cyclo(Glu-Dab-D-Phe(4-CF3)-Arg-Trp-Orn)-NH2 (peptide)
–,0.245,11,100,9.30,10.26,"Ac-Arg-cyclo(Glu-Dab-D-Phe(2,4-diCl)-Arg-Trp-Orn)-NH2 (peptide)"
